For assay [1], the target named is T1, PP1c (human PP1cα amino acids 7-330, N-terminal Thio6/His6 tag) (human, UniProt P62136 7-330).
T1 construct: range 7-330; Recombinant, from E. coli with GroEL/GroES and MnCl2; In thermophoresis it was labelled with the Monolith NT Red-NHS kit; also called protein phosphatase 1c; Thio6/His6-PP1c
Description: thermophoresis (MST), labelled PP1c.

Assay [2] addresses T1, PP1c (human PP1cα amino acids 7-330, …). The experiment in a line: thermophoresis, labelled PP1c, unlabelled fragment titrated.

T1 sequence (P62136 other isoform, or with tags, fused parts or gaps): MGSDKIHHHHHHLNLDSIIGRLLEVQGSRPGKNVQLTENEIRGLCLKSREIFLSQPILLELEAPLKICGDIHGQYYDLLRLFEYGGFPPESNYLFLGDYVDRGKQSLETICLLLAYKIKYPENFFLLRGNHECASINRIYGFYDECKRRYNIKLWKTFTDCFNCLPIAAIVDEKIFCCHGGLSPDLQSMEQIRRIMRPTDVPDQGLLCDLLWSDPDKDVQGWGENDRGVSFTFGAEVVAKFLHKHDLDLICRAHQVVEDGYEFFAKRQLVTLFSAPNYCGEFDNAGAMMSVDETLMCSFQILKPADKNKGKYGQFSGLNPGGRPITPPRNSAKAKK

B1: R15B^C (human PPP1R15B amino acids 636-698, N-terminal MBP-tag, C-terminal His6-tag) (other, not shown: large carriers)
chain: VKRKKVTFLEEVTEYYISGDEDRKGPWEEFARDGCRFQKRIQETEDAIGYCLTFEHRERMFNRHHHHHH
notes: range 636-698; also called R15B^636-698; carboxy-terminal fragment of R15B
With B1, in assay [1], the binding result was “binds”.

B2: R15B^N (human PPP1R15B amino acids 340-635, N-terminal MBP-tag, C-terminal His6-tag) (other, not shown: large carriers)
chain: RDNPTQFVPAAGDIPGNTQESTEEKIELLTTEVPLALEEESPSEGCPSSEIPMEKEPGEGRISVVDYSYLEGDLPISARPACSNKLIDYILGGASSDLETSSDPEGEDWDEEAEDDGFDSDSSLSDSDLEQDPEGLHLWNSFCSVDPYNPQNFTATIQTAARIVPEEPSDSEKDLSGKSDLENSSQSGSLPETPEHSSGEEDDWESSADEAESLKLWNSFCNSDDPYNPLNFKAPFQTSGENEKGCRDSKTPSESIVAISECHTLLSCKVQLLGSQESECPDSVQRDVLSGGRHTHHHHHHH
notes: range 340-635; also called R15B^340-635; amino-terminal fragment of R15B
As to B2, the binding result in assay [2] is recorded as “no binding”.

The values above are taken from patent US20200199647A1 (published 2020).
